Measured values from PMC10786891, “Massively parallel profiling of RNA-targeting CRISPR-Cas13d”.

B1: target 1 C4A (60-mer) (mixed)
RNA 1: CACCCGUGCAAAAAUGCAGGGGUCUAAAACUGAGCGGAUAACCUCUCUAUGG
RNA 2: CCACAUCUACGAAUUCGUACCAUAGAGAGGUUAUCCGAUCACCGAGAUCGGAAGAGCACA
B2: target 1 3'-GCU (60-mer) (mixed)
RNA 1: CACCCGUGCAAAAAUGCAGGGGUCUAAAACUGAGCGGAUAACCUCUCUAUGG
RNA 2: CCACAUCUACGAAUUCGUACCAUAGAGAGGUUAUCCGCUCAGCUAGAUCGGAAGAGCACA
B3: target 1 C2G (60-mer) (mixed)
RNA 1: CACCCGUGCAAAAAUGCAGGGGUCUAAAACUGAGCGGAUAACCUCUCUAUGG
RNA 2: CCACAUCUACGAAUUCGUACCAUAGAGAGGUUAUCCGCUGACCGAGAUCGGAAGAGCACA
B4: crRNA-2 (MT) target (mixed)
RNA 1: CACCCGUGCAAAAUUGCAGGGGUCUAAAACCUUGAAGUUUUCCAAGUGCACU
RNA 2: UCCACAGCAAGUGCACUUGGAAAACUUCAAGAUGUGGUCA
B5: target 1 MT (60-mer) (mixed)
RNA 1: CACCCGUGCAAAAAUGCAGGGGUCUAAAACUGAGCGGAUAACCUCUCUAUGG
RNA 2: CCACAUCUACGAAUUCGUACCAUAGAGAGGUUAUCCGCUCACCGAGAUCGGAAGAGCACA
B6: target 1 MT 5'PFS GGA 3'PFS AGA (mixed)
RNA 1: CACCCGUGCAAAAAUGCAGGGGUCUAAAACUGAGCGGAUAACCUCUCUAUGG
RNA 2: GGGAAUGGAUCCACAUCUACGAAUUCGGACCAUAGAGAGGUUAUCCGCUCAAGAAGAUCGGAAGAGCACACGU
B7: target 1 MT 5'PFS CUG 3'PFS AUU (mixed)
RNA 1: CACCCGUGCAAAAAUGCAGGGGUCUAAAACUGAGCGGAUAACCUCUCUAUGG
RNA 2: GGGAAUGGAUCCACAUCUACGAAUUCCUGCCAUAGAGAGGUUAUCCGCUCAAUUAGAUCGGAAGAGCACACGU
B8: target 1 MT 5'PFS UAC 3'PFS AUG (mixed)
RNA 1: CACCCGUGCAAAAAUGCAGGGGUCUAAAACUGAGCGGAUAACCUCUCUAUGG
RNA 2: GGGAAUGGAUCCACAUCUACGAAUUCUACCCAUAGAGAGGUUAUCCGCUCAAUGAGAUCGGAAGAGCACACGU
B9: target 1 MT 5'PFS CCC 3'PFS UAA (mixed)
RNA 1: CACCCGUGCAAAAAUGCAGGGGUCUAAAACUGAGCGGAUAACCUCUCUAUGG
RNA 2: GGGAAUGGAUCCACAUCUACGAAUUCCCCCCAUAGAGAGGUUAUCCGCUCAUAAAGAUCGGAAGAGCACACGU
B10: target 1 MT 5'PFS UUG 3'PFS UGU (mixed)
RNA 1: CACCCGUGCAAAAAUGCAGGGGUCUAAAACUGAGCGGAUAACCUCUCUAUGG
RNA 2: GGGAAUGGAUCCACAUCUACGAAUUCUUGCCAUAGAGAGGUUAUCCGCUCAUGUAGAUCGGAAGAGCACACGU
B11: target 1 MT 5'PFS GCC 3'PFS UGC (mixed)
RNA 1: CACCCGUGCAAAAAUGCAGGGGUCUAAAACUGAGCGGAUAACCUCUCUAUGG
RNA 2: GGGAAUGGAUCCACAUCUACGAAUUCGCCCCAUAGAGAGGUUAUCCGCUCAUGCAGAUCGGAAGAGCACACGU
B12: target 1 MT 5'PFS GCU 3'PFS UAG (mixed)
RNA 1: CACCCGUGCAAAAAUGCAGGGGUCUAAAACUGAGCGGAUAACCUCUCUAUGG
RNA 2: GGGAAUGGAUCCACAUCUACGAAUUCGCUCCAUAGAGAGGUUAUCCGCUCAUAGAGAUCGGAAGAGCACACGU
B13: target 1 MT 5'PFS GCC 3'PFS CGA (mixed)
RNA 1: CACCCGUGCAAAAAUGCAGGGGUCUAAAACUGAGCGGAUAACCUCUCUAUGG
RNA 2: GGGAAUGGAUCCACAUCUACGAAUUCGCCCCAUAGAGAGGUUAUCCGCUCACGAAGAUCGGAAGAGCACACGU
B14: target 1 MT 5'PFS GCC 3'PFS CGC (mixed)
RNA 1: CACCCGUGCAAAAAUGCAGGGGUCUAAAACUGAGCGGAUAACCUCUCUAUGG
RNA 2: GGGAAUGGAUCCACAUCUACGAAUUCGCCCCAUAGAGAGGUUAUCCGCUCACGCAGAUCGGAAGAGCACACGU
B15: target 1 MT 5'PFS CAG 3'PFS UGA (mixed)
RNA 1: CACCCGUGCAAAAAUGCAGGGGUCUAAAACUGAGCGGAUAACCUCUCUAUGG
RNA 2: GGGAAUGGAUCCACAUCUACGAAUUCCAGCCAUAGAGAGGUUAUCCGCUCAUGAAGAUCGGAAGAGCACACGU
B16: target 1 MT 5'PFS GCU 3'PFS UAA (mixed)
RNA 1: CACCCGUGCAAAAAUGCAGGGGUCUAAAACUGAGCGGAUAACCUCUCUAUGG
RNA 2: GGGAAUGGAUCCACAUCUACGAAUUCGCUCCAUAGAGAGGUUAUCCGCUCAUAAAGAUCGGAAGAGCACACGU
B17: target 1 MT 5'PFS GCC 3'PFS UGA (mixed)
RNA 1: CACCCGUGCAAAAAUGCAGGGGUCUAAAACUGAGCGGAUAACCUCUCUAUGG
RNA 2: GGGAAUGGAUCCACAUCUACGAAUUCGCCCCAUAGAGAGGUUAUCCGCUCAUGAAGAUCGGAAGAGCACACGU
B18: target 1 MT 5'PFS CUG 3'PFS AUG (mixed)
RNA 1: CACCCGUGCAAAAAUGCAGGGGUCUAAAACUGAGCGGAUAACCUCUCUAUGG
RNA 2: GGGAAUGGAUCCACAUCUACGAAUUCCUGCCAUAGAGAGGUUAUCCGCUCAAUGAGAUCGGAAGAGCACACGU
B19: target 1 MT 5'PFS GCC 3'PFS UGU (mixed)
RNA 1: CACCCGUGCAAAAAUGCAGGGGUCUAAAACUGAGCGGAUAACCUCUCUAUGG
RNA 2: GGGAAUGGAUCCACAUCUACGAAUUCGCCCCAUAGAGAGGUUAUCCGCUCAUGUAGAUCGGAAGAGCACACGU
B20: target 1 MT 5'PFS AGG 3'PFS UCC (mixed)
RNA 1: CACCCGUGCAAAAAUGCAGGGGUCUAAAACUGAGCGGAUAACCUCUCUAUGG
RNA 2: GGGAAUGGAUCCACAUCUACGAAUUCAGGCCAUAGAGAGGUUAUCCGCUCAUCCAGAUCGGAAGAGCACACGU
B21: target 1 MT 5'PFS UAC 3'PFS AUU (mixed)
RNA 1: CACCCGUGCAAAAAUGCAGGGGUCUAAAACUGAGCGGAUAACCUCUCUAUGG
RNA 2: GGGAAUGGAUCCACAUCUACGAAUUCUACCCAUAGAGAGGUUAUCCGCUCAAUUAGAUCGGAAGAGCACACGU
B22: target 1 MT 5'PFS AAG 3'PFS UAC (mixed)
RNA 1: CACCCGUGCAAAAAUGCAGGGGUCUAAAACUGAGCGGAUAACCUCUCUAUGG
RNA 2: GGGAAUGGAUCCACAUCUACGAAUUCAAGCCAUAGAGAGGUUAUCCGCUCAUACAGAUCGGAAGAGCACACGU
B23: target 1 U3G,G15A (mixed)
RNA 1: CACCCGUGCAAAAAUGCAGGGGUCUAAAACUGAGCGGAUAACCUCUCUAUGG
RNA 2: GGGAAUGGAUCCACAUCUACGAAUUCGUACCAUAGAAAGGUUAUCCGCGCACCGAGAUCGGAAGAGCACACGU
B24: target 1 MT 5'PFS GCC 3'PFS CGG (mixed)
RNA 1: CACCCGUGCAAAAAUGCAGGGGUCUAAAACUGAGCGGAUAACCUCUCUAUGG
RNA 2: GGGAAUGGAUCCACAUCUACGAAUUCGCCCCAUAGAGAGGUUAUCCGCUCACGGAGAUCGGAAGAGCACACGU
B25: target 1 MT 5'PFS GCC 3'PFS CGU (mixed)
RNA 1: CACCCGUGCAAAAAUGCAGGGGUCUAAAACUGAGCGGAUAACCUCUCUAUGG
RNA 2: GGGAAUGGAUCCACAUCUACGAAUUCGCCCCAUAGAGAGGUUAUCCGCUCACGUAGAUCGGAAGAGCACACGU
B26: target 1 MT 5'PFS CUG 3'PFS AUA (mixed)
RNA 1: CACCCGUGCAAAAAUGCAGGGGUCUAAAACUGAGCGGAUAACCUCUCUAUGG
RNA 2: GGGAAUGGAUCCACAUCUACGAAUUCCUGCCAUAGAGAGGUUAUCCGCUCAAUAAGAUCGGAAGAGCACACGU

target: T1, EsCas13d, nuclease-dead (Eubacterium siraeum, UniProt B0MS50, R295A;H300A;R849A;H854A); test: BLI; crRNA (strand 1, pre-loaded); Mg2+; 40 mM Tris-HCl pH 7.5, 150 mM NaCl, 6 mM MgCl2, 1 mM DTT, 0.1% Tween-20, 0.2 mg/ml BSA; temperature not stated; conditions: tags: His6-TwinStrep-SUMO cleaved; label: 3' biotin on strand 2
T1 sequence: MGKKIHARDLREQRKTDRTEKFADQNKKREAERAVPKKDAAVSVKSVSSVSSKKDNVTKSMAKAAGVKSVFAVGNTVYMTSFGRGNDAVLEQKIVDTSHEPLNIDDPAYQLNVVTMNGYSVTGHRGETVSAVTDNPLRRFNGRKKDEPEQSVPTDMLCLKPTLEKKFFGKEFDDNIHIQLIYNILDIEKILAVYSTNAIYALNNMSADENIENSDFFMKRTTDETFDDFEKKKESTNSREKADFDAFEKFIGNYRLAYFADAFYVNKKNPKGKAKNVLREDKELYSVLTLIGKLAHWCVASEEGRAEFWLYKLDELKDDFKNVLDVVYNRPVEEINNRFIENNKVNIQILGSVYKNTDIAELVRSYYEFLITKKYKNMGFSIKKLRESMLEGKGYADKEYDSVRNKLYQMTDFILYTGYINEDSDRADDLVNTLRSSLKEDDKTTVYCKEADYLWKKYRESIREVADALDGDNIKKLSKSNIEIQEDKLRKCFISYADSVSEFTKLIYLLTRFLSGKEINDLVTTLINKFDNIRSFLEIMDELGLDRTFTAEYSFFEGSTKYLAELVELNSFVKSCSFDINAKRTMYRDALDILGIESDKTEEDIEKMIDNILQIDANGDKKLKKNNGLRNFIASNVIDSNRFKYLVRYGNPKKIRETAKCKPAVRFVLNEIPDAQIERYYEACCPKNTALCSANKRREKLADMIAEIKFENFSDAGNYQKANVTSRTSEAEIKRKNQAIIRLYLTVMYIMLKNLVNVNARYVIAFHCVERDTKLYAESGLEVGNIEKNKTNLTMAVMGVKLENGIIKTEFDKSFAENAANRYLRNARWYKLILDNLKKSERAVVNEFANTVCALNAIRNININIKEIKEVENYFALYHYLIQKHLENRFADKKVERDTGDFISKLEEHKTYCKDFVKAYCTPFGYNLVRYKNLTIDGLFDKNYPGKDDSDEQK

In order of rising Kd:
1. B1  1.6 nM
2. B3  2 nM
3. B4  3 nM
4. B2  4.2 nM

target: T1, EsCas13d, nuclease-dead; test: as above; conditions: tags: His6-TwinStrep-SUMO cleaved; label: 3' biotin on strand 2; remark: another data set of the same source

In order of falling koff:
1. B5  0.00052 s⁻¹
2. B3  0.0004 s⁻¹
3. B1  0.00035 s⁻¹

In order of falling kon:
1. B1  220000 M⁻¹ s⁻¹
2. B3  200000 M⁻¹ s⁻¹
3. B5  170000 M⁻¹ s⁻¹

target: T1, EsCas13d, nuclease-dead; test: crRNA (strand 1, pre-loaded); Mg2+; 40 mM Tris-HCl pH 7.5, 150 mM NaCl, 6 mM MgCl2, 1 mM DTT, 0.1% Tween-20, 0.2 mg/ml BSA; 25 C; 10 min per concentration, then washed; conditions: tags: His6-TwinStrep-SUMO cleaved; N-terminal SNAP kept (SNAP-Surface 488); label: 3' end held by stalled T7 RNA polymerase

In order of falling Kd:
1. B12  ~95 nM
2. B15  ~60 nM
3. B10  51 ± 11.5 nM
4. B16  49.5 ± 11 nM
5. B20  49 ± 19 nM
6. B8  43 ± 20.5 nM
7. B18  33.5 ± 8 nM
8. B21  26.5 ± 8 nM
9. B24  26.1 ± 9.1 nM
10. B22  24 ± 7 nM
11. B6  20.5 ± 2.75 nM
12. B19  20 ± 5 nM
13. B13  18.5 ± 7.5 nM
14. B23  17.5 ± 1 nM
15. B14  15.5 ± 6 nM
16. B17  11.8 ± 2.3 nM
17. B9  ~11 nM
18. B25  10.1 ± 1.65 nM
19. B11  9 ± 1.35 nM
20. B7  6.05 ± 1.6 nM
21. B26  5.05 ± 1.4 nM
